Measured values reported in patent US20200276322A1 (ADMINISTRATORS OF THE TULANE EDUCATIONAL FUND, published 2020).
Square brackets hold non-standard residues; d marks the D form. Ends that are not written are not given here.

Target: GFP1-10 protein
Test: cell-based or functional assay

| Binder | split GFP assay, GFP fluorescence over background, 10 µM, 22 °C | split GFP assay, GFP fluorescence over background, 10 µM, 37 °C | split GFP assay, GFP fluorescence against Tat-GFP-11, 40 µM, 37 °C and 22 °C |
| --- | --- | --- | --- |
| [dR][dK][dK][dR][dW][dF][dR][dR][dR][dR][dP][dK][dW][dK][dK]RDHMVLHEYVNAAGIT [CPP-1(D)-GFP-11] | 2.2 fold | 2.1 fold |  |
| G[dR][dK][dK][dR][dR][dQ][dR][dR][dR][dP][dP][dQ]RDHMVLHEYVNAAGIT [Tat(D)-GFP-11] |  |  | 2 fold |
